Data published in the nanobody polyreactivity screen of Harvey et al. (2022).

Test: yeast display, Sf9 membrane polyspecificity reagent, FACS + sequencing; frameworks hold sequencing errors
In short: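 Using colony PCR, genes from sorted yeast display clones were amplified, then sequenced on MiSeq at 2 × 250 and filtered by CDR length. The clones had been stained with 10% biotinylated, detergent-solubilized Sf9 membrane reagent for 1 hour at 4 °C and sorted by FACS into low and high (top ~1%) gates on anti-HA and streptavidin fluorescence. Polyreactivity labels come from the gate of origin.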

| Sequence | polyreactivity (PSR sort gate) |
| --- | --- |
| QVQLVESGGGLVQAGGSRRIICAASGSIFGYYAMGWYRQAPGKEREFVAAISGRGSSTYYADSVKGRFTISRDNAQNTVYLQMNSLKPEDTAVYYCARVTYKHYGYWGQGTQVTVSS | high polyreactivity |
| QVQLVESGGGLVQAGGSRRISCAASGIIFTLYVMGWYRQAPGTERELVAAIRSGGSTYYADSVKGRVTISRDNAKNTVYLQMNSLKPEDTAVYYCAARVRSGTGVGFDYWGQGTQVTVSS | high polyreactivity |
| QVQLVESGGGLVQAGGSRRLICAASGSIFGWYAMGWYRPAHGKERELVAAISQSGGRTYYADSVKGRFTISRDNAKNTVYLQMNSLKPEDTAVYYCAAYYTSYWGYDYDYWGQGTQVTVSS | low polyreactivity |
| QVQLVESGGGLVQAGGSRRLSCAASGLIFVRYAMGWYRQAPGKERELVATISSRGASTYYADSVKGRFTISRDNAKNTVYFQMNSLKPEDTAVYYCNAGRLRRSYKPYDYWGQGTQVTVSS | high polyreactivity |
| QVQLVESGGGLVQAGGSRRLSCAASGLIMDYYAMGWYRQAPGKERELVAAISSGGTDTYYADSVKGRFTITRDNAKNTVYLQMNSLKPEDTAVYYCAADSYWSAYDYWGQGTQVTVSS | low polyreactivity |
| QVQLVESGGGLVQAGGSRRLSCAASGSTFYGYAMGWYRQAPGKEREFVAAITTSGGSTYYADSVKGRFTISRDNAKNTVYLQMNSLKPEDTAVYYCAADGFYYDDGYWGQGTQVTVSS | low polyreactivity |
| QVQLVESGGGLVQAGGSRRVSCAASGCIFGYNDMGWSRQAPGKDRELDASITWGGGRTRYADSVKGRFTISRDNAKNTVDLHMNSLKPEDTAVYYGAADKRSYSYVRPPRNQEDYWGQGTQVTVSS | low polyreactivity |
| QVQLVESGGGLVQAGGSRSLSCAASGSILWYYAMGWYRQAPGKERELVADITARGVGTYYADSVKGRFTISRDNAKNTVYLQMNSLKPEDTAVYYCNVETYSFYTLYVTYDYWGQGTQVTVSS | low polyreactivity |
| QVQLVESGGGLVQAGGSVRLSCAASGFIFTDNAMGWYRQPPLKERELVAAINLSGTRTYYADSVKGRFTISLDNAKNTVSLQMNSLKPEDTAVYYCNISEDYSYEYWGQGTQVTVSS | low polyreactivity |
| QVQLVESGGGLVQAGGSVRLSCAASGFIFYDYVMGWYRQAPGKERELVAAISASGGSTYYADSVKGRFTISRDYAKNTVYLQMNSLKPEDTAVYYCAAPRYYYYWRDYWGQGTQVTVSS | high polyreactivity |
| QVQLVESGGGLVQAGGSVRLSCAASGLIFTIYAMGWYRQAPGKERELVAVITWSGGSTYYADSVKGRFTISRDNAKNTVYLQMYSLKPEDTAVYYCAVEWAYPYWYTYYLEDYWGQGTQVTVSS | low polyreactivity |
| QVQLVESGGGLVQAGGSVRLSCAASGRIFSRKAMRWYIQAPGKERELVAAISRSGTSTYYADSVKGRFTISRDNAKNTVYLQMNSLKPEDNAVYYCAADYPAVISIRRYDYWGQGTQVTVSS | low polyreactivity |
| QVQLVESGGGLVQAGGTLLLSGAASGSIFGYNAMGWYRQAPGKERELVAAIRSSDSRTHYADSVKGRFRISRDNAKNTVYLQMNSLKPEDTAVYYCAAVKRRPGHYLYDYWGQGTQVTVSS | low polyreactivity |
| QVQLVESGGGLVQAGGTLRISCAASGRTFRKYAMGWYRQAPGKERELVAAISWSGGSTYYANSVKGRFTISRDNAKNTVYLQMNSLKPEDTAVYYCAAVPVHTGSLYWGFTTGYDYWGQGTQVTVSS | low polyreactivity |
| QVQLVESGGGLVQAGGTLRLSCAACGFTFSSYAMGWYRQAPGKERELVAAITYRGGSTYYADSVKGRFTISRDNAMNNVYLQMNSLKPEDTAVYYCAARWGYRMYWGQGTQVTVSS | high polyreactivity |
| QVQLVESGGGLVQAGGTLRLSCAACGSTYYRNAMGWYRPAPGKERELVATITRSGGSTYYADSVKGRFTISRDNAKNTVYLQMNSLKPEDTAVYYCAARGWYKSDYWGQGTQVTVSS | low polyreactivity |
| QVQLVESGGGLVQAGGTLRLSCAASGFIIPGYAMGCYRQAPGKERELVAAISGRGGSTYYADSVKGRFTISRDNAKNTVYLQMNSLKPEDTAVYYCNADWQDDLAGYDVDYWGQGTQVTVSS | low polyreactivity |
| QVQLVESGGGLVQAGGTLRLSCAASGFTFFSNAMGWYRQPPGKERELVAAIPTNGGSTYYADSVKGRFTISRDNAMNTVYLQMNSLKPEDTALYYCAAEYTVGGPYSYDFWGQGTQVTVSS | low polyreactivity |
| QVQLVESGGGLVQAGGTLRLSCAASGIIFYSNAMGWYRQAPGKEWELVAGISKSGGSTYYADSVKGRFTISRDNAKNNVYLHMNSLKPEDTAVYYCAVRGGGRYRSWGYDYWGQGTQVTVSS | high polyreactivity |
| QVQLVESGGGLVQAGGTLRLSCAASGIIIGSYAMGWYRQAPGKERELVAAITNGARTNYADSVKGRFTISRDNAKNTVYLQMNSLKPEDTAVYYCAADNYFDWYWLFFEYDYWGQGTQVTVSS | high polyreactivity |
| QVQLVESGGGLVQAGGTLRLSCAASGRIFDGNTMGWDRQAPGKERELVAAIRSRGDRTYYADSVKGRFTISRDNAKNTVYLQMNSLKPEDTAVYYCAAQPSWYKPKGSWFEKGLYDYWGQGTQVTVSS | low polyreactivity |
| QVQLVESGGGLVQAGGTLRLSCAASGRIFSGYVMGWYRPAPGKERELVAVISRSGGSTYYADSVKGRFTISRDNAKNTVYLQMNSLKPEDTAVDYCAAKHIDGSRGYDYWGQGTQVTVSS | low polyreactivity |

| Sequence | polyreactivity (PSR sort gate) |
| --- | --- |
| QVQLVESGGGLVQAGGTLRLSCAASGRIFSKNAMGWYRQAPGKERELVAAMSSSGTSTYYADSVKGRFTISRDNAKNTVYLQINSLKPEDTAVYYCAARVSLTTYSYYSWGQGTQLTVSS | high polyreactivity |
| QVQLVESGGGLVQAGGTLRLSCAASGRIFWAYAMGRYRQAPGKERELVAAITRSGGYTRYADSVKGRFTISRDNAKNTVYLLMNSLKPEDTAVYYCNAYAPRQLYGYDYWGQGSQVTVSS | high polyreactivity |
| QVQLVESGGGLVQAGGTLRLSCAASGRTFNYAMGWYRQAPGKERELVATITSGGSTNYADSVKGRFTISRDNAKNTVYLQLNSLKPEDTAVYYCNRDIPPGNYYKALYYYWGQGTQVTVSS | low polyreactivity |
| QVQLVESGGGLVQAGGTLRLSCAASGRTFYYYTMGWYRQAPGKERDLVAAISSTGNTYYADSVKGRFTISRDNAKNSVYLQMNSLNPADTALYYCAASGGSSDAYWGQGTQVTVSS | high polyreactivity |
| QVQLVESGGGLVQAGGTLRLSCAASGSIFARYAMGCSIQAPGKERELVAAISGSGASTYYADSVKGRFTISRDNAKNTVYLQMNSLKPEDTAVYYCARPFLRRPTYRFETGYGYWGQGTQVTVSS | high polyreactivity |
| QVQLVESGGGLVQAGGTLRLSCAASGSIFPYYVMGWYRQAPGKERELVAAISTSDGSTYADSVKGRFTISRDNAKNTVYFQMNSLKPEDTAVYYCAVANVYYEGYDYWGQGTQVTVSS | low polyreactivity |
| QVQLVESGGGLVQAGGTLRLSCAASGSTFAVNAMGWYRQPPGKERELVAAISRSGGSTYYADSVKGRFTISRDNAKNTDYLQMKSLKPEDTAFYYCNTRTPYWFKSDYWGQGTQVTVSS | low polyreactivity |
| QVQLVESGGGLVQAGGTLRLSCAASGSTFRGYAMGWYRQAPGKERELVAAIRRAGSTNYAESVKGRFTISRDNAKNTVYLQMNSLKPEDTAVYYFADSKCLWYGASVSQKKAGMDSWGQGTQVTVSS | low polyreactivity |
| QVQLVESGGGLVQAGGTLRLSCAASGSTFRYYAMGWYRQAPGKERELVATITSDGSTNYADSVKGRFTFSRDNAKNTVYLQLNSLKPEDTAVYYCNARCRRYKSSNSWGQGTQVTVSS | high polyreactivity |
| QVQLVESGGGLVQAGGTLRLSCAASGSTFVGYAMGWYRQAPGKERELVAAISSSGSTNYADSVKGRFTISRDNAKNTVYLQMNSLKPEDTAVYYCAALYSYFWLIIDYGYWGQGTQVTVSS | low polyreactivity |
| QVQLVESGGGLVQAGGTLRLSCAASGSTLYPYDMGWYRQAPGKERELVAAIDSGGSTNYADSVKGRFTISRDNAKNTVYLQMNRLKPEDTAVYYCAADASGENDYWGQGTQVTVSS | low polyreactivity |
| QVQLVESGGGLVQAGGTLRLSCAASGYTSSLNAMRWYRQAPGKERELVARITTDGTSTYYADSVKGRFTISRDNAKNTVYLQMNSLKPEDTAVYYCNARYPAYGVRSWYPYAYYYWGQGTQVTVSS | low polyreactivity |
| QVQLVESGGGLVQAGGTLRLSCADSGSTFTYNAMGWYRQAPGKERELVASISSGTTTYYADSVKGRFTISRDNAKNTVYLQMNSLKPEDTAVYYCAVDSWSRVQGWLAHNYDYWGQGTQVTVSS | low polyreactivity |
| QVQLVESGGGLVQAGGTLRLSCAPSGRTFKRYAMGWYRQAPGKERELVAAISSGGSTYADSVKGRFTISRDNAKNTVYLHMNSLKTEDTAVYYCAARYRSYPERYNYWGQGTQGTVSS | high polyreactivity |
| QVQLVESGGGLVQAGGTLRLSCAPSGSTFVPNAMGWYRQAPGKERELVATITSSSSRTYYADSVKGRFTISRDNAKNTVYLQMNSLKPEDTAVYYCAADGRRVVARYDYWGQGTQVTVSS | high polyreactivity |
| QVQLVESGGGLVQAGGTLRLSCDASGSIFFWKAMGWYRQAPGKERELVAAISYTDGSTYYADSVKGRFTIPRDNAKNTVYLLMNSLKPEDTAVYYCAAAITPSYNGSEYDYWGQGTQVTVSS | low polyreactivity |
| QVQLVESGGGLVQAGGTLRLSCSASGSIFGIYAMGGYRHAPGKESELVAAITSGGSTYADSVKGRFTISRDNAKNTVYLQMNSLKPVDTAVYFCAAYGRDIGGYDYWGQGSQVTVSS | low polyreactivity |
| QVQLVESGGGLVQAGGTLRLSSAPTGSNFSAYAKGWYREAPGKERELVAAISTSGYTNYADSVKGRFTISRDKALNTVYLQMNSLKPEDTAVSYCAADRDYGDGTAGYGYEFDYWGQGTQVTVSS | low polyreactivity |
| QVQLVESGGGLVQAGGTLRLTCAASGTFYGNNMGWYIHAPGKQRELVATIRRSTGSTYYADSVKGRFTISRDNAKNTVYLQMNSLKPEDTAVYYCAAEIYSYYRLYWYDYRGQGTQVTVSS | high polyreactivity |
| QVQLVESGGGLVQAGGTLSLSCAATGRNFYCYAMGWYRQAHGKERELVAAINWSGGTTYYADSVKGRFTISRDNAKNTVYLQMNSLKPEDTAVYYSAADRILEMGYWGQGTQVTVSS | low polyreactivity |
| QVQLVESGGGLVQAGGTRRLSCAASGSIFYYYAMGWYRQAPGKERELVAAINRGVGSTFYADSVKGRFTISRDNAKNTVYLQMNSLKPEDTAVYYCAVELNQVTPGLGYITLDYWGQGTQVTVSS | low polyreactivity |
